In patent US20030113787A1 (Takeda / Millennium, published 2003):

Tests used:
Myc-tagged CARD-9 = target: T1, Myc-tagged CARD-9 (human, UniProt Q9H257 1-536); assay: co-localization by immunofluorescence in co-transfected Rat-1 cells
T1 construct: Expressed in 293T or Rat-1 cells; Species not restated; also called pCI-Card-9-myc
T1 sequence: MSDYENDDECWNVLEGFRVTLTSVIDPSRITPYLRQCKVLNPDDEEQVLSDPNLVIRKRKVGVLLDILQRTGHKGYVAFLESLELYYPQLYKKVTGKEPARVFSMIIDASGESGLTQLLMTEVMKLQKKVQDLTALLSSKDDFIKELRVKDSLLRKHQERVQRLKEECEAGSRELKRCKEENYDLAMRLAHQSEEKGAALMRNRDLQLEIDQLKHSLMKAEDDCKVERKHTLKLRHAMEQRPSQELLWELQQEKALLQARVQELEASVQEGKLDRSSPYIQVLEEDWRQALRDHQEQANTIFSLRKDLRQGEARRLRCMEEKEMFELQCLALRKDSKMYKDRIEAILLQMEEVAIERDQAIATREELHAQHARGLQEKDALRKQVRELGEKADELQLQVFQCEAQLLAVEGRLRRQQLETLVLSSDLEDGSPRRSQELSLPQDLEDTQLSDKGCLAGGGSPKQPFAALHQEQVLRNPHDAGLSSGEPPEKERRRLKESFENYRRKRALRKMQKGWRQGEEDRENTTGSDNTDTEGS
Text: To determine the cellular localization of CARD-9, and to confirm that CARD-9 associated intracellularly with Bcl-10 when the two proteins were co-expressed, Rat-1 cells were transfected with a Myc-tagged vector encoding full-length CARD-9, and with an HA-tagged vector encoding full-length Bcl-10. The expressed proteins were detected using a mixture of a monoclonal anti-Myc antibody and a polyclonal rabbit anti-HA antibody. Briefly, Rat-1 cells were transfected in glass chamber slides (BioCoat, Becton-Dickinson Labware) with pCI-Bcl-10-HA or pCI-Card-9-myc, alone or together, using FuGENE-6 (Roche Molecular Biochemicals) for 20 hours. Cells were fixed in 4% paraformaldehyde, permeabilized and blocked in buffer containing 0.4% Trition X-100, and sequentially incubated with primary and secondary antibodies. Antibodies were rabbit anti-HA polyclonal Y-11 (Santa Cruz Biotechnology), mouse anti-myc monoclonal 9E10 (Oncogene Research Products), Alexa-488 Goat anti-mouse IgG (Molecular Probes) and Texas-Red Goat anti-rabbit IgG (Jackson Immunoresearch Laboratories). No cross-reactivity was observed between any of the antibodies. Nuclei were stained with Hoechst 33258. […]

Myc-CARD-11/CC [1] = target: T2, Myc-CARD-11/CC (human, UniProt Q9BXL7 129-449); assay: co-localization by immunofluorescence in co-transfected cells
T2 construct: NOT the whole entry: only the coiled-coil region stood in the assay
T2 sequence: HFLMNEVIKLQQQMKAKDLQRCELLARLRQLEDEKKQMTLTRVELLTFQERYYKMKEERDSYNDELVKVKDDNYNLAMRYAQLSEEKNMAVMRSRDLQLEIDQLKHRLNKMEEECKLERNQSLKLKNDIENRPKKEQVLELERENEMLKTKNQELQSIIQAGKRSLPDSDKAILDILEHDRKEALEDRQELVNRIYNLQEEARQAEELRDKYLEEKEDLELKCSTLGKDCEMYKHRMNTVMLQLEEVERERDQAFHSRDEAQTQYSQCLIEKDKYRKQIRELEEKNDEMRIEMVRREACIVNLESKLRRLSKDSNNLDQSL

CARD-11/DCARD = target: T3, CARD-11/DCARD (human, UniProt Q9BXL7 134-1154); assay: as above
T3 construct: also called CARD-11 truncation mutant lacking the N-terminal CARD
T3 sequence: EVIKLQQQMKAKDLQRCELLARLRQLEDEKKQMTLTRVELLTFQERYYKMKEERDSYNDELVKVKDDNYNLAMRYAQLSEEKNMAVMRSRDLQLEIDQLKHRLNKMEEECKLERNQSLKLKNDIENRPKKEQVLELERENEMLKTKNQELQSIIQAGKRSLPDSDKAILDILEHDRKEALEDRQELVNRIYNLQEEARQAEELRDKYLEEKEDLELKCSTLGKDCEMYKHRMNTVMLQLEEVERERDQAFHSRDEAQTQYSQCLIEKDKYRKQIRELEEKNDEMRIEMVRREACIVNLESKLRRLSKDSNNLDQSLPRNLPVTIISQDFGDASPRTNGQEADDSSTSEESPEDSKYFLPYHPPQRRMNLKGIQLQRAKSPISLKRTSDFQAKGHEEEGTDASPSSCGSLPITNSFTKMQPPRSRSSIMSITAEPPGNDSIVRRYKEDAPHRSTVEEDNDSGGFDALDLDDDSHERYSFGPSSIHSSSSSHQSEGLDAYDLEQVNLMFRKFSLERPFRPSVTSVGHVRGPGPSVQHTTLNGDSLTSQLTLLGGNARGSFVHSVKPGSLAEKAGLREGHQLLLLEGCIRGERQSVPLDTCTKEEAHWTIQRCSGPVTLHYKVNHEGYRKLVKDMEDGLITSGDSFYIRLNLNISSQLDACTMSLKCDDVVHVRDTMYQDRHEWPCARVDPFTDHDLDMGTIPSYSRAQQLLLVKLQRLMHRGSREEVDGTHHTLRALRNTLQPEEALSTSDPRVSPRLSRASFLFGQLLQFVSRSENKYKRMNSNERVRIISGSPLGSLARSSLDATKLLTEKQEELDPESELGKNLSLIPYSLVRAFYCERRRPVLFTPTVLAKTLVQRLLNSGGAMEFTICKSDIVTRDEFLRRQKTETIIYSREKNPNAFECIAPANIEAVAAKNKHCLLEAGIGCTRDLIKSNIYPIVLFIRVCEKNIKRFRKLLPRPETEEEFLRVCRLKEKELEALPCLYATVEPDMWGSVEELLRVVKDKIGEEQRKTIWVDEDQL

[2] = target: T4, Myc-tagged CARD-11 (full-length) (human, UniProt Q9BXL7 8-1154); assay: as above
T4 construct: Used in the co-localization and Bcl-10 phosphorylation experiments; also called full-length CARD-11
T4 sequence: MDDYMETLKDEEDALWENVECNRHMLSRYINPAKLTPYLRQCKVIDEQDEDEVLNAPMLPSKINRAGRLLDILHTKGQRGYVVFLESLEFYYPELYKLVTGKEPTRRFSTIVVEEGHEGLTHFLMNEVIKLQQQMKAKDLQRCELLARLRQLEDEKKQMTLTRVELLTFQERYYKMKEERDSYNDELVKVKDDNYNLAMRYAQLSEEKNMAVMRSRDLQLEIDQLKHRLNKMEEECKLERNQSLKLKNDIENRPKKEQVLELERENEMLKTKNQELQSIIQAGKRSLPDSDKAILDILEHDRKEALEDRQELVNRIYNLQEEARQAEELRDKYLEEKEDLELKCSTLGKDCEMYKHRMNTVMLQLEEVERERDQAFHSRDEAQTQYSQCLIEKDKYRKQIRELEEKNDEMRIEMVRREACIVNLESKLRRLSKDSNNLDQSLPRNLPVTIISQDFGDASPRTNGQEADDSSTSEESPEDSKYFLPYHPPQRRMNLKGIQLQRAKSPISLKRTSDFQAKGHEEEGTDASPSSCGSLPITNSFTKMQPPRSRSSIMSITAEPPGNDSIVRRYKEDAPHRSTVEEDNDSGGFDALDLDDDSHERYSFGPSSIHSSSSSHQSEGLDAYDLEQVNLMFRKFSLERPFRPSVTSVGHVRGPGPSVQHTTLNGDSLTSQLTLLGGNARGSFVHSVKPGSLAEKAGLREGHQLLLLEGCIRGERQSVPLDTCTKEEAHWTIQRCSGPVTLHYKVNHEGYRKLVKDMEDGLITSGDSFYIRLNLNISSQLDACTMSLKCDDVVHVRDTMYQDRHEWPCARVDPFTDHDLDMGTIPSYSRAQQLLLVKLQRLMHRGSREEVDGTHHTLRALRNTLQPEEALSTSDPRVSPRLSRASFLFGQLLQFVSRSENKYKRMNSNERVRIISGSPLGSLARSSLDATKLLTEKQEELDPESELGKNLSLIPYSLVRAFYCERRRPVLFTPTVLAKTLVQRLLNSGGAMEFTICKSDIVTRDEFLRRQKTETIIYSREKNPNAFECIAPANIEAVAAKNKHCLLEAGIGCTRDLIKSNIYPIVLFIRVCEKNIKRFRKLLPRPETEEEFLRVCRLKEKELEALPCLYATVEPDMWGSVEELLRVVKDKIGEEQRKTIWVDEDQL

Myc-CARD-11/CC [3] = target: T2, Myc-CARD-11/CC; assay: co-immunoprecipitation from transfected 293T cells (anti-Flag IP, anti-Myc blot)
Experimental: The interaction between CARD-11 and Bcl-10 was next examined in cells by overexpressing CARD-11 is cells and performing co-immunoprecipitation assays. These assays were performed as follows. Plasmids expressing CARD-11 with C-terminal Myc epitopes were constructed using pCMV-Tag 5A (Stratagene Corp., La Jolla, Calif.). Constructs encoding epitope-tagged Bcl-10 were described previously (Srinivasula et al., […] J. Biol. Chem. 274:17946). 293T cells transfected with the plasmids were lysed in 50 mM Tris, pH 8.0, 120 mM NaCl, 1 mM EDTA, 0.5% Nonidet P-40 buffer and incubated with anti-Flag-M2 monoclonal antibody (Sigma Co.). The immune complexes were precipitated with protein G-Sepharose (Amersham Pharmacia Bio), washed extensively, and then subjected to SDS-polyacrylamide gel electrophoresis and immunoblotted with polyclonal anti-Myc antibodies (Santa Cruz Biotechnology, Inc.).

Bcl-10-CARD/AD = target: T5, Bcl-10-CARD/AD (mouse, UniProt Q04207 364-549; O95999 1-104); assay: cell-based or functional assay
T5 sequence (looked up): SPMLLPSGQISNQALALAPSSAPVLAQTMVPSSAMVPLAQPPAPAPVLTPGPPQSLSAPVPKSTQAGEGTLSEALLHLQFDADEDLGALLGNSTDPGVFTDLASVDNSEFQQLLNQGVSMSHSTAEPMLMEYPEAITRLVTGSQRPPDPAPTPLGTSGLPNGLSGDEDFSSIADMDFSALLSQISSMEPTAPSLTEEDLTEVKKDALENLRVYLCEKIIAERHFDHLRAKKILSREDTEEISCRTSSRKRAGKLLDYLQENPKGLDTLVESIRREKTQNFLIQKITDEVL

B1: HA-tagged Bcl-10 (other, UniProt O95999 1-233, looked up, not shown: small tags and cut ends)
chain: MEPTAPSLTEEDLTEVKKDALENLRVYLCEKIIAERHFDHLRAKKILSREDTEEISCRTSSRKRAGKLLDYLQENPKGLDTLVESIRREKTQNFLIQKITDEVLKLRNIKLEHLKGLKCSSCEPFPDGATNNLSRSNSDESNFSEKLRASTVMYHPEGESSTTPFFSTNSSLNLPVLEVGRTENTIFSSTTLPRPGDPGAPPLPPDLQLEEEGTCANSSEMFLPLRSRTVSRQ
notes: Expressed in Rat-1 or other transfected cells; also called pCI-Bcl-10-HA; HA-Bcl-10
binding result (Myc-tagged CARD-9): binds | binding result (Myc-CARD-11/CC [1]): no binding | binding result (CARD-11/DCARD): no binding | binding result [2]: binds

B2: Flag-tagged Bcl-10 (other, UniProt O95999 1-233, looked up, not shown: small tags and cut ends)
chain: MEPTAPSLTEEDLTEVKKDALENLRVYLCEKIIAERHFDHLRAKKILSREDTEEISCRTSSRKRAGKLLDYLQENPKGLDTLVESIRREKTQNFLIQKITDEVLKLRNIKLEHLKGLKCSSCEPFPDGATNNLSRSNSDESNFSEKLRASTVMYHPEGESSTTPFFSTNSSLNLPVLEVGRTENTIFSSTTLPRPGDPGAPPLPPDLQLEEEGTCANSSEMFLPLRSRTVSRQ
notes: Expressed in 293T cells; also called Flag-Bcl-10
binding result (Myc-CARD-11/CC [3]): no binding

B3: CARD10-CARD/BD (other, yeast)
chain: MKLLSSIEQACDICRLKKLKCSKEKPKCAKCLKNNWECRYSPKTKRSPLTRAHLTEVESRLERLEQLFLLIFPREDLDMILKMDSLQDIKALLTGLFVQDNVNKDAVTDRLASVETDMPLTLRQHRISATSSSEESSNKGQRQLTVSMPGRAEAGEAEEEAGAGSGSEAEEDALWERIEGVRHRLARALNPAKLTPYLRQCRVIDEQDEEEVLSTYRFPCRVNRTGRLMDILRCRGKRGYEAFLEALEFYYPEHFTLLTGQEPAQRCSMILDEEGPEGLTQFLMT
relative luciferase activity (mammalian two-hybrid reporter) (Bcl-10-CARD/AD): 340 fold
